Experimental data: paper PMC2018632 (Nucleic Acids Research, 2007)

Target: T1, Escherichia coli uracil-DNA glycosylase (Escherichia coli, UniProt P12295 1-229)
T1 sequence: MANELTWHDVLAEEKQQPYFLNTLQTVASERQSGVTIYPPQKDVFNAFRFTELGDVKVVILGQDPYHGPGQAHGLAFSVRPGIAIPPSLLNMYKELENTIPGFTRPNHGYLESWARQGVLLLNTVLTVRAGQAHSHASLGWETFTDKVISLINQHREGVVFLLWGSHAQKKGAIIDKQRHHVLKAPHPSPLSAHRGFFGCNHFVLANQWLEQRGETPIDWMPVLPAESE
Assay: native gel or EMSA

B1: Ugi from the Bacillus subtilis phage PBS2 (natural protein)
chain: MTNLSDIIEKETGKQLVIQESILMLPEEVEEVIGNKPESDILVHTAYDESTDENVMLLTSDAPEYKPWALVIQDSNGENKIKML
B1: binds.
